Laboratory results: US20030162734

Columns and labels:
[1] = biological target: GFP-DENN (full length DENN/MADD fused to the C-terminus of EGFP) (UniProt Q8WXG6)
[2] = biological target: DENN-JBD (JNK binding domain region of DENN lacking the NLS and DD regions, fused to the C-terminus of EGFP) (UniProt Q8WXG6)

JNK (c-Jun N-terminal kinase), endogenous in NSC19 cells; p54 and p46 isoforms of phosphorylated JNK
p54 band of phosphorylated JNK on Western immunoblot, NSC19 clones, 24 h Aβ exposure [1]: DENN and DENN-JBD affected 3 to 4-fold increase in the p54 band with Aβ exposure | p54 band of phosphorylated JNK on Western immunoblot, NSC19 clones, 24 h Aβ exposure [2]: DENN and DENN-JBD affected 3 to 4-fold increase in the p54 band with Aβ exposure | phosphorylated c-Jun (Ser73) on immunoblot, NSC19 clones [2]: Expression of ΔMEKK1, DENN, DENN-CT and DENN-JBD showed sustained levels of phosphorylated c-Jun
